Assay results: patent US20200283521A1 (GRANULAR THERAPEUTICS, published 2020)
Positions count from the first letter of the chain named. Where two headings read alike, the source gives them in different places.

B1: MH5, human IgG1 (antibody, V domains shown)
VH: QVQLVQSGAEVKKPGASVKVSCKASGYTFTDYYMNWVRQAPGQGLEWMGRIYPGSGNTYYAQKFQGRVTMTRDTSTSTVYMELSSLRSEDTAVYYCARGVYYYDYWGQGTLVTVSS
VL: DIQMTQSPSSLSASVGDRVTITCRASQGIRTNLAWFQQKPGKAPKSLIYSASSLQSGVPSRFSGSGSGTDFTLTISSLQPEDFATYYCQQYANYPRTFGGGTKVEIK
notes: IgG1; also called C-KIT-MH5; C-KIT-MHS
B2: MH1, human IgG1 (antibody, V domains shown)
VH: B1 VH
VL: B1 VL with S50A, A92N, N93S
notes: IgG1; also called IgG1-MH1

How the values were obtained:
hVCAM-Fc = target: T1, hVCAM-Fc; assay: direct ELISA on coated protein, IgG1
T1 construct: member of the panel m9
T1 chain: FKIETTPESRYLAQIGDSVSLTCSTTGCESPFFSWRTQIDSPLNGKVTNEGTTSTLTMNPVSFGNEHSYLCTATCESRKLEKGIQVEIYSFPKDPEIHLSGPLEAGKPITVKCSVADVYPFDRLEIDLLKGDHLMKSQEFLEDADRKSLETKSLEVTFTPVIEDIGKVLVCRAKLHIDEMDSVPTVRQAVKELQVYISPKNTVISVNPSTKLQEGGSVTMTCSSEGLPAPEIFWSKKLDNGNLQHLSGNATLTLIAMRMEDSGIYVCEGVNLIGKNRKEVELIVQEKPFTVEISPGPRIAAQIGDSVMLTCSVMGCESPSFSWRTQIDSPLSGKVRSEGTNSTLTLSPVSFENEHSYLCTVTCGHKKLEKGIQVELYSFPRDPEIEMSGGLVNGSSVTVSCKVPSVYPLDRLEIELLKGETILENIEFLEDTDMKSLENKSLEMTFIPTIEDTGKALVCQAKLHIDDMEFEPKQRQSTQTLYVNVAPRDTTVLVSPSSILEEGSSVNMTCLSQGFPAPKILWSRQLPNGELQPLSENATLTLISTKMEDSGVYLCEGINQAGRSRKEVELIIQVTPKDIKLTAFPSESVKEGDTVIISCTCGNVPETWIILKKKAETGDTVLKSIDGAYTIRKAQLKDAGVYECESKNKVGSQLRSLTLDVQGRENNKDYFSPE

hDR6-Fc = target: T2, hDR6-Fc (human, UniProt O75509); assay: direct ELISA on coated protein, IgG1
T2 construct: Fc fusion; member of the panel m9
T2 sequence (looked up): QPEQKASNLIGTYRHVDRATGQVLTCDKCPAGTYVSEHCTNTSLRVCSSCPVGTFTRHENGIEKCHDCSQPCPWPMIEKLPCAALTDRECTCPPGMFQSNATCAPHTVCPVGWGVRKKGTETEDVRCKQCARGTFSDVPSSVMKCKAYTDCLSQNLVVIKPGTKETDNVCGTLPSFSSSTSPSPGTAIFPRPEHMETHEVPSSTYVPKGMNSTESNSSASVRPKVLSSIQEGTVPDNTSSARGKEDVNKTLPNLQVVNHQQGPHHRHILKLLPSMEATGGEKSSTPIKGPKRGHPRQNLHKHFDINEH

hCD4 = target: T3, hCD4 (human, UniProt P01730); assay: direct ELISA on coated protein, IgG1
T3 construct: purified recombinant protein; member of the panel m9

hEpCAM-Fc = target: T4, hEpCAM-Fc (human, UniProt P16422); assay: direct ELISA on coated protein, IgG1
T4 construct: Fc fusion; member of the panel m9
T4 sequence (looked up): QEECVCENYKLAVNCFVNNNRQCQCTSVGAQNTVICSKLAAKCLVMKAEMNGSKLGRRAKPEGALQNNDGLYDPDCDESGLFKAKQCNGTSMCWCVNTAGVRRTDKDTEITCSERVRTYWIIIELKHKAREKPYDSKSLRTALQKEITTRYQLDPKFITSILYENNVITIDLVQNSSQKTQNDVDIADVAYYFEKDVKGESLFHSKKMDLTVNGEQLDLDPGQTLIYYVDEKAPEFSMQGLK

[1] = target: T5, cynomolgus monkey C-KIT-Fc (cynomolgus monkey); assay: direct titration ELISA on coated C-KIT-Fc, IgG1 format
T5 construct: also called cyno C-KIT-Fc
Protocol: Direct titration ELISA for IgG binding to human and cyno C-KIT-Fc proteins.
(§1) To coat Greiner Bio-One High bind ELISA plates, target proteins were diluted to 1 μg/ml in carbonate buffer and added at 100 μl per well, at 4° C., o/n. Coated plates were washed 3× with PBS pH7.4, blocked with 1% BSA in PBS (380 μl/well) for 1 hr at RT, then washed 3× with PBS-Tween 20 (PBST). C-KIT antibodies (100 μl/well; diluted in PBST) were then added and then incubated 1 hr at RT. Plates were then washed 3× with PBST and goat anti-human kappa chain-HRP added (100 μl/well) at RT, for 1 hr. Plates were then washed 3× with PBST and twice with PBS before the addition of 100 μl TMB per well. Reactions were stopped by adding 100 μl 2M H₂SO₄/well and OD was read on a plate reader at 450 nm.

[2] = target: T5, cynomolgus monkey C-KIT-Fc; assay: as above; remark: listed apart in the source
Protocol: Direct titration ELISA for second-generation designer IgGs binding to human and cyno C-KIT-Fc proteins.
as §1

BAIAP2L2 = target: T6, BAIAP2L2 (human, UniProt Q6UXY1); assay: cell array, transfected fixed HEK293 cells
T6 construct: expressed in transfected HEK293 cells
T6 sequence (looked up): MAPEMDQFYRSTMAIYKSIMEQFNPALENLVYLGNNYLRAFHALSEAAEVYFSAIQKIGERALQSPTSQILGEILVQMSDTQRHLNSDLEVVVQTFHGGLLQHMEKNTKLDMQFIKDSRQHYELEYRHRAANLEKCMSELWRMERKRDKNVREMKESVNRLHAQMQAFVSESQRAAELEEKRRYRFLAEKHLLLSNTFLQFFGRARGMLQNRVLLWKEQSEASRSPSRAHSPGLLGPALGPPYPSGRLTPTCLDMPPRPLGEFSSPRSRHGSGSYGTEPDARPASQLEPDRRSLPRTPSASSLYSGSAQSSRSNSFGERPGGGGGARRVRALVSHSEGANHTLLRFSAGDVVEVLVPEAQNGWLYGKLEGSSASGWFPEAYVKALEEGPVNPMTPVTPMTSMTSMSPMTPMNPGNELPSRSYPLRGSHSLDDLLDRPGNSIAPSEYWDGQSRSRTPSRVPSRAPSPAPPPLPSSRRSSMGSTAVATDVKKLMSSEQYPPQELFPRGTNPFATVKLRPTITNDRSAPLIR
Protocol: (§2) Transfection of all plasmids was confirmed by screening for the co-encoded marker ZS green (FIG. 13A).
(§3) Primary hits (duplicate spots) were identified by analysing fluorescence (AF647 and ZsGreenl) on ImageQuant. Vectors encoding all hits were sequenced to confirm their correct identities. […] Slides were analysed as above.

SLMAP = target: T7, SLMAP (human, UniProt Q14BN4); assay: cell array, transfected fixed HEK293 cells
T7 construct: expressed in transfected HEK293 cells
T7 sequence (looked up): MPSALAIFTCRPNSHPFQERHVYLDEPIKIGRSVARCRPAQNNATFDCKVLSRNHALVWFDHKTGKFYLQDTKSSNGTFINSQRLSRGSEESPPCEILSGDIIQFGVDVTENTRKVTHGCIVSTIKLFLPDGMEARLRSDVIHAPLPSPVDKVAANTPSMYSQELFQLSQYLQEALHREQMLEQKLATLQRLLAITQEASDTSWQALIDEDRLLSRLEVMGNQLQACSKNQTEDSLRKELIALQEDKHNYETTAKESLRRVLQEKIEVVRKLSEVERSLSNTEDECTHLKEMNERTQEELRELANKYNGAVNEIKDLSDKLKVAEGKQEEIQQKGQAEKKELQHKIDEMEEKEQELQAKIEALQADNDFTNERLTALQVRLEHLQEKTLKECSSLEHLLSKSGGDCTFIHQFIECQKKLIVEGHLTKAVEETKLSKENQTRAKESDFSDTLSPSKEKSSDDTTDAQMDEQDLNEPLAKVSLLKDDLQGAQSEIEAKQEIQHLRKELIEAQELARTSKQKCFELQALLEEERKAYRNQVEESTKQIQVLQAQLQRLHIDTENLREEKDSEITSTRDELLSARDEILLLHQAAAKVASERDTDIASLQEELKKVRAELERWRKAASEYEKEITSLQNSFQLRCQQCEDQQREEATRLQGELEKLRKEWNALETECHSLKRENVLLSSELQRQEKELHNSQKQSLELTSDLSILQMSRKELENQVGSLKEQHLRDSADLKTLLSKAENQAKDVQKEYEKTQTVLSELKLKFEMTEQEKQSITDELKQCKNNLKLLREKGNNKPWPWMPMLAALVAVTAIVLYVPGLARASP
Protocol: as §2, §3

Binder | binding result (hVCAM-Fc) | binding result (hDR6-Fc) | binding result (hCD4) | binding result (hEpCAM-Fc) | EC50 (read off the curve) [1] [µg/mL] | EC50 (read off the curve) [2] [µg/mL] | binding result (BAIAP2L2) | binding result (SLMAP)
B1 | no binding (tested: 1 µg/ml) | no binding (tested: 1 µg/ml) | no binding (tested: 1 µg/ml) | no binding (tested: 1 µg/ml) | ~0.1 | ~0.1 |  | 
B2 |  |  |  |  |  |  | no binding (tested: 2 µg/ml) | no binding (tested: 2 µg/ml)
